PMC6112861 (Nature, 2018)

T1: Stt3 (S. cerevisiae, UniProt P39007 1-718, N-glycan at Asn539)
T1 sequence (looked up): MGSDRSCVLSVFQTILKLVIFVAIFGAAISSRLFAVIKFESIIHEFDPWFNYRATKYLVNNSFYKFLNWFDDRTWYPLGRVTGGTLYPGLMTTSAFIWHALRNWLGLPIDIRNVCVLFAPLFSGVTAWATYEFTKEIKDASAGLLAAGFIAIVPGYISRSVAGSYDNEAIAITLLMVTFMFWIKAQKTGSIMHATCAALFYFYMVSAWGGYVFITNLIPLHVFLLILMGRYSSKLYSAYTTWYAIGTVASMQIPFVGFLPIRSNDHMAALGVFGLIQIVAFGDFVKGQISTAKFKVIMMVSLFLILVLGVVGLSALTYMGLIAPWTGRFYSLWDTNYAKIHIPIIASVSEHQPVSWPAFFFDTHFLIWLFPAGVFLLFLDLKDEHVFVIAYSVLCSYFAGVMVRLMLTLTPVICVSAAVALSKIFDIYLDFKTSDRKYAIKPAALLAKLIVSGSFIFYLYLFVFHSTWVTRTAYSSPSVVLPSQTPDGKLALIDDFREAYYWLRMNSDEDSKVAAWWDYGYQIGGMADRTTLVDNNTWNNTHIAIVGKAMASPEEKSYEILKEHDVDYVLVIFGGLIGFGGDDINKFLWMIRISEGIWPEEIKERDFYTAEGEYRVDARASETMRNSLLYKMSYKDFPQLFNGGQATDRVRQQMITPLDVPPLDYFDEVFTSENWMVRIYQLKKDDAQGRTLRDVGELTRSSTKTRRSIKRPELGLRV

B1: Wbp1 (natural protein, S. cerevisiae, UniProt P33767 21-430, looked up)
chain: TQTSRTLVLYDQSTEPLEEYSVYLKDLEQRNYKLEYLDINSTSTTVDLYDKEQRLFDNIIVFPTKGGKNLARQIPVKQLIKFFENEGNILCMSSPGAVPNTIRLFLNELGIYPSPKGHVIRDYFSPSSEELVVSSNHLLNKYVYNARKSEDFVFGESSAALLENREQIVPILNAPRTSFTESKGKCNSWTSGSQGFLVVGFQNLNNARLVWIGSSDFLKNKNQDSNQEFAKELLKWTFNEKSVIKSVHAVHSHADGTSYDEEPYKIKDKVIYSVGFSEWNGEEWLPHIADDIQFELRQVDPYYRLTLSPSGNDSETQYYTTGEFILPDRHGVFTFLTDYRKIGLSFTTDKDVKAIRHLANDEYPRSWEISNSWVYISAICGVIVAWIFFVVSFVTTSSVGKKLETFKKTN
modifications: N-glycan at Asn60
B2: Ost1 (natural protein, S. cerevisiae, UniProt P41543 23-476, looked up)
chain: AQYEPPATWENVDYKRTIDVSNAYISETIEITIKNIASEPATEYFTAFESGIFSKVSFFSAYFTNEATFLNSQLLANSTTAPGDDGESEIRYGIIQFPNAISPQEEVSLVIKSFYNTVGIPYPEHVGMSEEQHLLWETNRLPLSAYDTKKASFTLIGSSSFEEYHPPNDESLLGKANGNSFEFGPWEDIPRFSSNETLAIVYSHNAPLNQVVNLRRDIWLSHWASTIQFEEYYELTNKAAKLSKGFSRLELMKQIQTQNMRQTHFVTVLDMLLPEGATDHYFTDLVGLVSTSHAERDHFFIRPRFPIFGGWNYNFTVGWTNKLSDFLHVSSGSDEKFVASIPILNGPPDTVYDNVELSVFLPEGAEIFDIDSPVPFTNVSIETQKSYFDLNKGHVKLTFSYRNLISQVANGQVLIKYDYPKSSFFKKPLSIACYIFTALMGVFVLKTLNMNVTN
modifications: N-glycan at Asn336
B3: Swp1 (natural protein, S. cerevisiae, UniProt Q02795 20-286, looked up)
chain: YVAQDVHVSFPSTAGKSRVMIGKVEPRIGIDETVPTTITVEDPNEVIQVNFAIESTNKPFQNTLLIGLPNKNLEMAFEPEIKDNGKLSMYKYRIDLAKLDAALLQEASRSPEPIKATLILASSTAKPKENLFREILQLNLNFDVDHSDSSLVDKFGIKPEIHHIFHAEPKRVAKPIAVIFVLIIFITILSLIVTWLNSCAAAFNNIPTGVTAVYFLGFIATIVGFEVIFARYYLGTSIFETLFSSLYLGAPGLLTSTKFLRSFGQTI

Columns and labels:
Assay in all cases: cryo-EM structure
Stt3 = target: T1, Stt3
Swp1 = target: B3
Wbp1 = target: B1
Ost1 = target: B2

Row | binding result (Stt3) | binding result (Swp1) | binding result (Wbp1) | binding result (Ost1) | Binder
1 | binds | – | – | – | Ost3 (natural protein, S. cerevisiae, UniProt P48439 23-350, looked up) MSSNRLLKLANKSPKKIIPLKDSSFENILAPPHENAYIVALFTATAPEIGCSLCLELESEYDTIVASWFDDHPDAKSSNSDTSIFFTKVNLEDPSKTIPKAFQFFQLNNVPRLFIFKPNSPSILDHSVISISTDTGSERMKQIIQAIKQFSQVNDFSLHLPMDWTPIITSTIITFITVLLFKKQSKLMFSIISSRIIWATLSTFFIICMISAYMFNQIRNTQLAGVGPKGEVMYFLPNEFQHQFAIETQVMVLIYGTLAALVVVLVKGIQFLRSHLYPETKKAYFIDAILASFCALFIYVFFAALTTVFTIKSPAYPFPLLRLSAPFK
2 | binds | binds | binds | – | Ost2 (natural protein, S. cerevisiae, UniProt P46964 1-130, looked up) MAKAPKANTPKVTSTSSAVLTDFQETFKTSKRAYFAQIEKYPKLKLIDTFCFFLVLLGVIQCTFIILIRDNFPFNAFLAGFIICVGQFVLLMSLRLQLCNSFPGISKNRAFAEFIVASLILHFVCLHFIN
3 | binds | – | – | – | B1
4 | – | – | – | binds | Ost5 (natural protein, S. cerevisiae, UniProt Q92316 1-86, looked up) MTYEQLYKEFHSSKSFQPFIHLDTQPKFAICGLIVTLAVLSSALFAVGSKSSYIKKLFFYTILSVIGSLFAGLTTVFASNSFGVYV
5 | binds | – | – | – | B2
6 | binds | – | binds | – | B3
7 | binds | – | – | – | MISDEQLNSLAITFGIVMMTLIVIYHAVDSTMSPKN (natural protein, S. cerevisiae) [Ost4-FLAG]
